Test results published in paper PMC10238842 (Molecular Therapy. Methods & Clinical Development, 2023).
Residue numbers refer to the chain shown, from its start. In names and notes the source's numbering stands.

B1: AAV1 VP3 (VP3M, VP3 203-736) of the AAV1-VP3-only capsid (natural protein, adeno-associated virus serotype 1 (AAV1), UniProt Q9WBP8 204-736, looked up)
chain: ASGGGAPMADNNEGADGVGNASGNWHCDSTWLGDRVITTSTRTWALPTYNNHLYKQISSASTGASNDNHYFGYSTPWGYFDFNRFHCHFSPRDWQRLINNNWGFRPKRLNFKLFNIQVKEVTTNDGVTTIANNLTSTVQVFSDSEYQLPYVLGSAHQGCLPPFPADVFMIPQYGYLTLNNGSQAVGRSSFYCLEYFPSQMLRTGNNFTFSYTFEEVPFHSSYAHSQSLDRLMNPLIDQYLYYLNRTQNQSGSAQNKDLLFSRGSPAGMSVQPKNWLPGPCYRQQRVSKTKTDNNNSNFTWTGASKYNLNGRESIINPGTAMASHKDDEDKFFPMSGVMIFGKESAGASNTALDNVMITDEEEIKATNPVATERFGTVAVNFQSSSTDPATGDVHAMGALPGMVWQDRDVYLQGPIWAKIPHTDGHFHPSPLMGGFGLKNPPPQILIKNTPVPANPPAEFSATKFASFITQYSTGQVSVEIEWELQKENSKRWNPEVQYTSNYAKSANVDFTVDNNGLYTEPRPIGTRYLTRPL
modifications: N-terminal methionine M203 removed; A204 acetylated at the N terminus
B2: AAV1-M211V-VP3 (VP3 of the AAV1-M211V-VP3-only capsid) (natural protein, adeno-associated virus serotype 1 (AAV1), UniProt Q9WBP8 204-736, looked up)
chain: B1 chain with M8V
modifications: N-terminal acetylation (NTA)

Target: the molecule itself
Assay: native MS

Row | Protein | stoichiometry N | binding result
1 | B1 | 60 | 
2 | B2 |  | binds
